Experimental data as given in US11541133B2, “Treatment of cancer cells overexpressing somatostatin receptors using ocreotide derivatives chelated to radioisotopes” (RADIOMEDIX INC., priority 2017, dated 2023).

Legend:
in vivo = test: in vivo; design: species or system mice
Procedure: ^212Pb-DOTATOC is prepared based on activity needed at time of injection. 4.1 ng of peptide per 10 μCi of ^212Pb into a tube is added. The mixture is incubated for 10 minutes at 50° C. with shaking. ITLC (Instant thin layer chromatography) is used to verify that chelation is >95%. 100 μl of ^212Pb-DOTATOC is intravenously injected into the tail of each mouse. An auto gamma counter is used to determine the counts of each organ and control tube.

[1] = Biodistribution in non-tumor bearing CD-1 mice at 4 h post-injection (FIGS. 12-13); conditions: female, CD-1, mouse, in vivo, total radioactivity
Procedure: FIG. 12 is a bar graph 1200 showing the biodistribution (% ID/g)(y-axis) for various organs (x-axis). The biodistribution of ^203Pb-TCMCTATE and ^203Pb-DOTAMTATE is shown for non-tumor bearing mice done at 4 h post-injection. The biodistribution studies of ^203Pb-TCMCTATE and ^203Pb-DOTAMTATE are completed in non-tumor bearing mice (CD-1 mice, Female, 20 g wt. 4-5 weeks) at 4 h post-injection of the cancer targeting compositions.
In comparison, FIG. 13 is a graph 1300 (similar to the graph of FIG. 12), except that the biodistribution study is of ^203Pb-acetate (a lead radioisotope without a chelator or targeting moiety) in non-tumor bearing mice done at 4 h post-injection. A higher accumulation of isotope is observed in blood, kidney, liver and lung compared to the chelated radioisotopes of FIG. 12. The biodistribution studies of the ^203Pb-acetate indicate retention of the isotope in bone marrow, blood and liver after 4 h post-injection.

[2] = ^203Pb-DOTAMTATE biodistribution in athymic nude mice (FIG. 16); type: in vivo; conditions: female athymic nude mice, 10 μCi iv, 4, 24 and 48 hours
Procedure: FIG. 16 is a bar graph 1600 showing the biodistribution results (% ID/g) of ^203Pb-DOTAMTATE in various organs (y-axis). The biodistribution data are acquired at 4 h, 24 h, and 48 h post-injection. […] There is also accumulation of the composition observed in kidneys and bladder due elimination of the composition through renal clearance. As may be seen from these figures, the composition is washed out from all measured organs over time in non-tumor bearing mice.
Female athymic nude mice (˜20 g) are injected with a single dose of ^203Pb-DOTAMTATE. Specifically, 10 μCi of ^203Pb-DOTAMTATE is diluted in PBS and 100 μl is administered to the mice via intravenous injection. The animals are sacrificed at predetermined time points of 4 hr, 24 hours and 48 hours post drug injection. Tissues are collected from each animal and evaluated for amount of radioactive material in each organ by auto gamma counter. Specifically, organs are harvested, weighed and transferred to polypropylene tubes. The tubes are placed in a calibrated Wizard2 γ-counter (PerkinElmer, Shelton, Conn.) and counted for three minutes (204-274 keV). A standard consisting of one-twentieth of the injection volume is counted with each time point. The background is automatically subtracted from the counts. The standard is also used for decay correction. % ID/g is calculated for each organ collected.

[3] = Side by side biodistribution of ^203Pb- and ^212Pb-DOTAMTATE in CD-1 mice (FIG. 32); type: in vivo; conditions: female CD-1 mice, 10 μCi iv, 4 hr and 24 hours
Procedure: Female CD-1 mice (˜20 g) are injected with a single dose of ^203Pb-DOTAMTATE or ^212Pb-DOTAMTATE. Specifically, 10 μCi of ^203Pb-DOTAMTATE or ^212Pb-DOTAMTATE is diluted in saline and 100 μl is administered to the mice via intravenous injection. The animals are sacrificed at predetermined time points of 4 hr and 24 hours post drug injection. Tissues are collected from each animal and evaluated for amount of radioactive material in each organ by auto gamma counter. Specifically, organs are harvested, weighed and transferred to 12×55 mm polypropylene tubes. The tubes are placed in a calibrated Wizard2 γ-counter (PerkinElmer, Shelton, Conn.) and counted for three minutes (204-274 keV). A standard consisting of one-twentieth of the injection volume is counted with each time point. The background is automatically subtracted from the counts. The standard is also used for decay correction. % ID/g is calculated for each organ collected, wherein “% ID” means percent injection dosage.

[4] = Dosimetry and bio-distribution of ^203Pb-DOTAMTATE in patients with somatostatin expressing neuroendocrine tumors (SPECT-CT); type: in vivo, human; conditions: human, in vivo
Procedure: Total of 6 patients are enrolled in the first-in-human open-label, single-dose, dosimetry and bio-distribution of ^203Pb-DOTAMTATE.
All patients (1 female and 5 male) receive an average dose of 4.94 (4.66-5.26) mCi of ^203Pb-DOTAM-TATE and undergo 1 hour, 4 hour, 24 hour and 48 hour post injection SPECT-CT scans. Ethnicity of all 6 patients is Caucasian.
Pharmacokinetic data from ^203Pb-DOTAMTATE imaging are used to calculate the absorbed dose from ^203Pb-DOTAMTATE imaging. The data is then extrapolated to calculate the expected tissue absorbed doses following the administration of ^212Pb-DOTAMTATE for future Targeted Alpha particle Therapy (TAT).

[5] = Radiochemical stability by radio-HPLC after labeling, incubation in PBS buffer; conditions: room temperature
[6] = female, CD-1, mouse, iv, 10 uCi, total radioactivity

## C[C@@H](O)[C@@H]1NC(=O)[C@H](CCCCN)NC(=O)[C@@H](Cc2c[nH]c3ccccc23)NC(=O)[C@H](Cc2ccc(O)cc2)NC(=O)[C@@H](NC(=O)[C@@H](Cc2ccccc2)NC(=O)CN2CCN(CC(=O)O)CCN(CC(=O)O)CCN(CC(=O)O)CC2)CSSC[C@@H](C(=O)N[C@H](CO)[C@@H](C)O)NC1=O [^212Pb-DOTATOC, metal not drawn]
In vivo; [6]
  tissue uptake at 0.5 h: 19 %ID/g
  tissue uptake at 4 h: 22 %ID/g
In vivo; mouse
  drug in all other organs: nearly undetectable

## C[C@@H](O)[C@H](NC(=O)[C@@H]1CSSC[C@H](NC(=O)[C@@H](Cc2ccccc2)NC(=O)CN2CCN(CC(N)=O)CCN(CC(N)=O)CCN(CC(N)=O)CC2)C(=O)N[C@@H](Cc2ccc(O)cc2)C(=O)N[C@H](Cc2c[nH]c3ccccc23)C(=O)N[C@@H](CCCCN)C(=O)N[C@@H]([C@@H](C)O)C(=O)N1)C(=O)O [^203Pb-DOTAMTATE, ((4R,7S,10S,13R,16S,19R)-13-((1H-indol-3-yl)methyl)-10-(4-aminobutyl)-16-(4-hydroxybenzyl)-7-((R)-1-hydroxyethyl)-6,9,12,15,18-pentaoxo-19-((R)-3-phenyl-2-(2-(4,7,10-tris(2-amino-2-oxoethyl)-1,4,7,10-tetraazacyclododecan-1-yl)acetamido)propanamido)-1,2-dithia-5,8,11,14,17-pentaazacycloicosane-4-carbonyl)-L-threonine chelated to M, metal not drawn]
[1]; kidney retention
  tissue uptake at 4 h: 9.79 ± 2.9 %ID/g
[1]; retention in other organs (than kidneys)
  tissue uptake at 4 h: < 2 %ID/g
[2]
  organ uptake: high initial uptake of the drug in the pancreas and kidneys that continues to decrease over time
[3]
  organ uptake compared with ^212Pb-DOTAMTATE in all critical organs: not significantly different
[4]
  absorbed dose, kidneys, average, for ^212Pb: 19 mGy/MBq
  absorbed dose, liver, average, for ^212Pb: 17 mGy/MBq
  dose to bone marrow: 1.6 Gy
  dose to heart wall: 3.7 Gy
  dose to lungs: 2.5 Gy
  dose to osteogenic cells: 0.5 Gy
  dose to spleen: 31 Gy
[5]; up to at least 24 h post-labeling
  radiochemical stability (radiochemical yield, no free ^203Pb peak in radio-HPLC): ≥ 98%

## C[C@@H](O)[C@H](NC(=O)[C@@H]1CSSC[C@H](NC(=O)[C@@H](Cc2ccccc2)NC(=S)Nc2ccc(C[C@H]3CN(CC(N)=O)CCN(CC(N)=O)CCN(CC(N)=O)CCN3CC(N)=O)cc2)C(=O)N[C@@H](Cc2ccc(O)cc2)C(=O)N[C@H](Cc2c[nH]c3ccccc23)C(=O)N[C@@H](CCCCN)C(=O)N[C@@H]([C@@H](C)O)C(=O)N1)C(=O)O [^203Pb-TCMCTATE, ((4R,7S,10S,13R,16S,19R)-13-((1H-indol-3-yl)methyl)-10-(4-aminobutyl)-16-(4-hydroxybenzyl)-7-((R)-1-hydroxyethyl)-6,9,12,15,18-pentaoxo-19-((R)-3-phenyl-2-(3-(4-(((S)-1,4,7,10-tetrakis(2-amino-2-oxoethyl)-1,4,7,10-tetraazacyclododecan-2-yl)methyl)phenyl)thioureido)propanamido)-1,2-dithia-5,8,11,14,17-pentaazacycloicosane-4-carbonyl)-L-threonine chelated to M, metal not drawn]
[1]; non-tumor bearing CD-1 mice, 4 h post-injection, read-out: kidney retention
  tissue uptake at 4 h: 23.5 ± 1.54 %ID/g
[1]; non-tumor bearing CD-1 mice, 4 h post-injection, read-out: retention in other organs (than kidneys)
  tissue uptake at 4 h: < 2 %ID/g
[5]; up to 18 h post-labeling
  radiochemical stability (radio-HPLC): ≥ 96%
